A short description of test [1]: FFAu response-profile screening of probes (FFA specificity). Format: binding. As to conditions: cysteine labeled with acrylodan at pH 7.0; FFA to which probe has improved specificity. On the procedure:
In some embodiments, aliquots of the probes prepared as described above are placed in multi-well plates, suitable for fluorescence measurements. Defined amounts of unbound analytes are added to each well and a fluorescence signal from the wells containing probe and analytes are compared to wells containing only the probe. The values obtained are compared with those of a ‘reference’ probe. The analytes may be fatty acids or other unbound metabolites. Preferably, the number of wells in the multiwell plate is between 1 and 1536. […] For many analytes it is important that they be added to each well in complex with a carrier molecule, for example albumin, to buffer the unbound analyte and thereby clamp its concentration to well defined values. Clamping ensures that the concentration of analyte in the aqueous phase in the well is unaffected by binding to the surfaces of the well or the probes themselves. Clamping is essential for discovery of probes because analytes have different solubilities and therefore different affinities for surfaces. Highly insoluble analytes added without proper clamping may bind to the surfaces and be unavailable for binding to the probe. In this example the probe might incorrectly give the appearance of no response to the insoluble analyte. Thus to determine the correct response profile (specificities) for each probe each analyte's concentration must be clamped.
The fluorescence intensity ratio (“R” value) for a given probe is determined. The ratio is calculated using the following formula: R=Fλ1/Fλ2 wherein, Fλ1 is the measured fluorescence intensities (intensity of the probe with the analyte present minus intensity of the analyte without probe present) at wavelength 1 and Fλ2 is the measured fluorescence intensities (intensity of the probe with the analyte present minus intensity of the analyte without probe present) at wavelength 2. Then, for a given probe, ΔR, the difference in R value between the measurement in the presence of each analyte and in the absence of each analyte, is calculated as follows: ΔR=R+analyte−R0 The ΔR value for a given probe is then compared to a reference probe, for example, ADIFAB or ADIFAB2, by ΔR/ΔRreferenee. This value is an indication of how dissimilar the new probe (derived by mutation of the template) is to the reference. By this method, probes with new and useful characteristics may be identified. Measurements of fluorescence intensities are obtained using standard techniques.
More than 40 libraries of cysteine-labeled mutant probes, using templates derived from SEQ ID NO: 5, with the number of different mutant probes in the various libraries ranging from 2000 to 2,000,000 have been generated using the methods described in U.S. Pat. No. 7,601,510, incorporated herein by reference. […]

A short description of test [2]: Fluorescence emission spectra with increasing oleic acid. Type of test: binding. As to conditions: acrylodan labeled; 22° C., Ex=386 nm. As to the method:
FIGS. 1A-1C show Fluorescence spectra with increasing oleic acid at 22° C. Ex=386 nm.
This is an example of the type of fluorescence response that is a necessary characteristic of a probe. […] This example illustrates that altering specific sites can yield effective probes.

Test [3] in a line: Bilirubin binding isotherm of dual fluorophore ratio probes (I608/I525). An excerpt:
FIGS. 7A-7B show Bilirubin binding isotherms for two dual fluorophore bilirubin ratio probes synthesized by labeling with acrylodan and Texas red.
Because such fluorescent proteins may have other valuable characteristics it would be important to be able to convert such fluorescent proteins into probes, i.e. so that they respond to analyte binding by a change in ratio. This can be accomplished by introducing a second but different fluorophore at a different site so that either the fluorescence of the second fluorophore is insensitive or responds differently to analyte binding. In addition, the fluorescence index of second fluorophore should be measured at a distinct wavelength from the first fluorophore. […] To convert this to a fluorescence ratio probe, site specific mutagenesis was used to generate a new mutein (L2P14F7-MGCFD) in which the N-terminal alanine residue of the mature L2P14F7 mutein was replaced with glycine-cysteine. Thus, the N-terminus of the mature L2P14F7-MGCFD mutein has the sequence glycine-cysteine-phenylalanine-aspartate instead of alanine-phenylalanine-aspartate, as in the L2P14F7 template. This substitution is designated in the clone name as “MGCFD” and is sometimes described as an “N-terminal MGCFD linker”. Then L2P14F7-MGCFD was reacted with Texas Red (TR) maleimide at pH 6 under which conditions only the cysteine was labeled. […]

B1: L61P8B12: 8I 14L 18L 23L 27Y 30C 31V 53I 55W 72G 74A 78V 82V 91Y 93M 102V 106W 115W 117L 131D (protein, listed as Rattus norvegicus)
chain: AFDGTWKIDRNENLEKFLEKMGLNVVYRKCVAHDNLKLTITQEGNKFTVKESINWRNIDVVFELGVDFAYSGAAGTEVTGTVTMEGNKLVYKMKRVDNGKEVIAVWEISGNELIWTLTYEGVEAKRIFKKDRGHHHHHH
modifications: acrylodan label on cysteine; MUTAGEN (131)...(131) rat intestinal fatty acid binding protein with Glu 131 to Asp subsitition.; COOH-terminal affinity tag comprising Arg132, Gly133 and 6 histidines
notes: 8I 14L 18L 23L 27Y 30C 31V 53I 55W 72G 74A 78V 82V 91Y 93M 102V 106W 115W 117L 131D
Take B1: the Specificity result in test [1] was “POA”.

B2: L68P3H10: 18L 23A 27C 31N 33N 55Q 72W 73T 74L 76I 106A 115E 117V 131D (protein, listed as Rattus norvegicus)
chain: AFDGTWKVDRNENYEKFLEKMGANVVCRKLNANDNLKLTITQEGNKFTVKESSNQRNIDVVFELGVDFAYSWTLGIELTGTWTMEGNKLVGKFKRVDNGKELIAVAEISGNELIETVTYEGVEAKRIFKKDRGHHHHHH
modifications: acrylodan label on cysteine; MUTAGEN (131)...(131) rat intestinal fatty acid binding protein with Glu 131 to Asp subsitition.; COOH-terminal affinity tag comprising Arg132, Gly133 and 6 histidines
notes: 18L 23A 27C 31N 33N 55Q 72W 73T 74L 76I 106A 115E 117V 131D
B2: the Specificity entry in test [1] was “DHA”.

B3: ADIFAB: rat intestinal FABP (SEQ ID NO:2) labeled with acrylodan at lysine 27 (protein, listed as Rattus norvegicus)
chain: AFDGTWKVDRNENYEKFMEKMGINVVKRKLGAHDNLKLTITQEGNKFTVKESSNFRNIDVVFELGVDFAYSLADGTELTGTWTMEGNKLVGKFKRVDNGKELIAVREISGNELIQTYTYEGVEAKRIFKKE
modifications: acrylodan label at K27; PEPTIDE (1)...(131) wild-type rat intestinal fatty acid binding protein; …ON (1)...(1)
On to B3, for which, in test [2], the “fluorescence response upon FFA binding (spectral shift / ratio response)” value is listed as “red shift in its fluorescence emission spectrum upon binding FFA”.

B4: V26C K27A: SEQ ID NO:2 with lysine 27 mutated to alanine, valine 26 to cysteine, cysteine labeled with acrylodan (protein, listed as Rattus norvegicus)
chain: AFDGTWKVDRNENYEKFMEKMGINVCARKLGAHDNLKLTITQEGNKFTVKESSNFRNIDVVFELGVDFAYSLADGTELTGTWTMEGNKLVGKFKRVDNGKELIAVREISGNELIQTYTYEGVEAKRIFKKE
modifications: acrylodan label on cysteine 26; PEPTIDE (1)...(131) wild-type rat intestinal fatty acid binding protein; …ON (1)...(1)
With B4, the “fluorescence response upon FFA binding (spectral shift / ratio response)” value in test [2] is on record as “yields a ratio response upon FFA binding”.

B5: K27C: lysine 27 of SEQ ID NO:2 mutated to cysteine and the cysteine labeled with acrylodan (protein, listed as Rattus norvegicus)
chain: AFDGTWKVDRNENYEKFMEKMGINVVCRKLGAHDNLKLTITQEGNKFTVKESSNFRNIDVVFELGVDFAYSLADGTELTGTWTMEGNKLVGKFKRVDNGKELIAVREISGNELIQTYTYEGVEAKRIFKKE
modifications: acrylodan label at C27; PEPTIDE (1)...(131) wild-type rat intestinal fatty acid binding protein; …ON (1)...(1)
As for B5, in test [2], the “fluorescence response upon FFA binding (spectral shift / ratio response)” value is “without the necessary spectral shift to yield a ratio probe”.

B6: L2P14F7: bilirubin specific fluorescent protein, the M18G,G31M mutation of SEQ ID NO 4, labeled with acrylodan at lysine 27 (protein, listed as Rattus norvegicus)
chain: AFDGTWKVDRNENYEKFGEKMGINVVKRKLMAHDNLKLTITQEGNKFTVKESSNFRNIDVVFELGVDFAYSAADGTELTGTWTMEGNKLVGKFKRVDNGKELIAVREISGNELIQTYTYEGVEAKRIFKKDRGHHHHHH
modifications: acrylodan label at lysine 27; MUTAGEN (72)...(72) rat intestinal fatty acid binding protein with alanine substitution for leucine at position 72 and Glu 131 to Asp subsitition.; COOH-terminal affinity tag comprising Arg132, Gly133 and 6 histidines
Usually Kd stands for the concentration at which binding is half-saturated. Regarding B6, in test [3] (labeled with acrylodan at lysine 27), the analyte specificity entry was “bilirubin specific”. Moreover, in test [3] (single site equilibrium binding, ratio I608/I525, excited at 375 nm), the Kd is around 80 nM.

B7: L50BP9D5: acrylodan cysteine-labeled rI-FABP mutein; 18L 21F 23L 27C 31N 72S 73T 74A 76I 117N 131D (protein, listed as Rattus norvegicus)
chain: AFDGTWKVDRNENYEKFLEKFGLNVVCRKLNAHDNLKLTITQEGNKFTVKESSNFRNIDVVFELGVDFAYSSTAGIELTGTWTMEGNKLVGKFKRVDNGKELIAVREISGNELIQTNTYEGVEAKRIFKKDRGHHHHHH
modifications: acrylodan label on cysteine; MUTAGEN (131)...(131) rat intestinal fatty acid binding protein with Glu 131 to Asp subsitition.; COOH-terminal affinity tag comprising Arg132, Gly133 and 6 histidines
notes: acrylodan cysteine-labeled rI-FABP mutein; 18L 21F 23L 27C 31N 72S 73T 74A 76I 117N 131D
Turning to B7, the Specificity result in test [1] is given as “PA/POA”.

B8: L10P7A4-L30C: acrylodan cysteine-labeled rI-FABP mutein; SEQ ID 5 mutations 14L 18L 27A 30C 31Y 72A 73L 117A 131D (protein, listed as Rattus norvegicus)
chain: AFDGTWKVDRNENLEKFLEKMGINVVARKCYAHDNLKLTITQEGNKFTVKESSNFRNIDVVFELGVDFAYSALDGTELTGTWTMEGNKLVGKFKRVDNGKELIAVREISGNELIQTATYEGVEAKRIFKKDRGHHHHHH
modifications: acrylodan label at C30; MUTAGEN (131)...(131) rat intestinal fatty acid binding protein with Glu 131 to Asp subsitition.; COOH-terminal affinity tag comprising Arg132, Gly133 and 6 histidines
Take B8: in test [1], the Specificity result is recorded as “DHA”.

Source of the values: patent US9817004B2, “Development and use of cysteine-labeled fluorescent probes of unbound analytes” (priority 2008, dated 2017).
